Data from doi:10.1101/694653 (bioRxiv, 2019).
Like-named read-outs stand apart in the source and are kept apart here. Values belong to the molecule of their own block, whether it stands above or below them.

Assays:
Assay in all cases: cross-linking
[1] = biological target: A. aegypti GPA2-FLAG (Aedes aegypti) (UniProt C6SUP2)
[2] = biological target: A. aegypti GPA2-FLAG (Aedes aegypti) (UniProt C6SUP2); remark: listed apart in the source
[3] = biological target: A. aegypti GPA2-His (Aedes aegypti) (UniProt C6SUP2)
cross-linking [4] = biological target: the molecule itself
cross-linking [5] = biological target: the molecule itself; remark: listed apart in the source

stoichiometry N [1]: 2
stoichiometry N [2]: 2
Molecule: A. aegypti GPA2-FLAG (from UniProt C6SUP2 1-120) (natural protein)

stoichiometry N [3]: 2
Molecule: A. aegypti GPA2-His (from UniProt C6SUP2 1-120) (natural protein)

B1: A. aegypti GPB5-His (natural protein, Aedes aegypti, UniProt C6SUR0 1-162, looked up)
chain: VEDSLFISGFEKKAPMLGCHKRVFTYRISQADSKGRECWDHVSVWSCHGRCDSNEISDWRFPYKRSHHPVCMHAGRTRSVATLRHCHPEADAEAKLYEYMEPKSCSCQTCTSMDTSCEGPKQLSTDAATKIFQIDDEEIESEYA
stoichiometry N (cross-linking [4]): 2

B2: H. sapiens GPB5-His (natural protein, UniProt Q86YW7 25-130, looked up)
chain: ASSGNLRTFVGCAVREFTFLAKKPGCRGLRITTDACWGRCETWEKPILEPPYIEAHHRVCTYNETKQVTVKLPNCAPGVDPFYTYPVAIRCDCGACSTATTECETI
stoichiometry N (cross-linking [5]): 2

B3: H. sapiens GPA2-FLAG (natural protein, UniProt Q96T91 24-129, looked up)
chain: QEAVIPGCHLHPFNVTVRSDRQGTCQGSHVAQACVGHCESSAFPSRYSVLVASGYRHNITSVSQCCTISGLKKVKVQLQCVGSRREELEIFTARACQCDMCRLSRY
stoichiometry N (cross-linking [5]): 2
